According to patent US20190022211A1 (CELLTRION, published 2019):
Where “and” joins values, the source holds several entries; their conditions need not be identical. Equal entries are not always repeated.

What was measured:
Assay in all cases: cell-based or functional assay
[1] = molecular target: G protein of rabies virus 323R (Dog/Coyote, Texas, USA), on virus (rabies virus)
[2] = molecular target: T1, G protein of rabies virus ERA, on virus (rabies virus, UniProt P03524 20-524)
T1 sequence: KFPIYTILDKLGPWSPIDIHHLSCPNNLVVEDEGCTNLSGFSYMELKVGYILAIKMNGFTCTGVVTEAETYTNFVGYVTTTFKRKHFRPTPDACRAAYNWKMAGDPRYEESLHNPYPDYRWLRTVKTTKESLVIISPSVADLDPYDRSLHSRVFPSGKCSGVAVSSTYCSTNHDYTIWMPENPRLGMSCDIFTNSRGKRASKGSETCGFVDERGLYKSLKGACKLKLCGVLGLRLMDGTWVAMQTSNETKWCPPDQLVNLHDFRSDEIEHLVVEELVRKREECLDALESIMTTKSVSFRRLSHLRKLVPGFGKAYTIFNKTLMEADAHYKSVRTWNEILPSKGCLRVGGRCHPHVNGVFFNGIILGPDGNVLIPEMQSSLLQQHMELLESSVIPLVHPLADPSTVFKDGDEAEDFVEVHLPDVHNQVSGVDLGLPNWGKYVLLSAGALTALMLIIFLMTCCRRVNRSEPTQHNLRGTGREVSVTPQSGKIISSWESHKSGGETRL

[3] = molecular target: G protein of rabies virus C1434 (Bat, Alabama, USA), on virus (rabies virus)
[4] = molecular target: G protein of rabies virus TN 132 (Bat, Tennessee, USA), on virus (rabies virus)
[5] = molecular target: G protein of rabies virus Rv342 China (Cow/dog, China), on virus (rabies virus)
[6] = molecular target: G protein of rabies virus AL Bat (Bat, California, USA), on virus (rabies virus)
[7] = molecular target: G protein of rabies virus AK FX (Arctic Fox, Alaska, USA), on virus (rabies virus)
[8] = molecular target: G protein of rabies virus AZ Bat (Bat, Arizona), on virus (rabies virus)
[9] = molecular target: G protein of ABV (SM 4476) (Australian bat lyssa, Genotype 7), on virus (Australian bat lyssa, Genotype 7)
[10] = molecular target: G protein of rabies virus TN410 (Bat, Tennessee, USA), on virus (rabies virus)
[11] = molecular target: G protein of EBLV 2 A03-4659 (Genotype 6), on virus (EBLV 2, Genotype 6)
[12] = molecular target: G protein of rabies virus MI1625 (Bat, Tennessee, USA), on virus (rabies virus)
[13] = molecular target: G protein of rabies virus Dog son (Dog, Mexico), on virus (rabies virus)
[14] = molecular target: G protein of rabies virus Dog thai (Dog, Thailand), on virus (rabies virus)
[15] = molecular target: G protein of rabies virus WA Bat (Bat, Washington, USA), on virus (rabies virus)
[16] = molecular target: G protein of rabies virus Myotis (Bat, Washington, USA), on virus (rabies virus)
[17] = molecular target: G protein of rabies virus LC NY (Bat, New York, USA), on virus (rabies virus)
[18] = molecular target: G protein of rabies virus Sri Lanka (Cow, Sri Lanka), on virus (rabies virus)
[19] = molecular target: G protein of rabies virus Mongoose PR (Mongoose, Puerto-Rico), on virus (rabies virus)
[20] = molecular target: G protein of rabies virus Phi 002 (231) (Human/dog, Philippines), on virus (rabies virus)
[21] = molecular target: G protein of EBLV 1 A09-3485 (Genotype 5), on virus (EBLV 1, Genotype 5)
[22] = molecular target: G protein of rabies virus TXFX (Gray fox, TX), on virus (rabies virus)
[23] = molecular target: G protein of rabies virus NC SK (Skunk, Wisconsin, USA), on virus (rabies virus)
[24] = molecular target: G protein of rabies virus Dog Arg (Dog, Argentina), on virus (rabies virus)
[25] = molecular target: G protein of rabies virus Gray FX-AZ (AZ fox) (Gray Fox, Arizona, USA), on virus (rabies virus)
[26] = molecular target: G protein of rabies virus TN-269 (Bat, Tennessee, USA), on virus (rabies virus)
[27] = molecular target: G protein of rabies virus RVHN (Human (ex, wolf), Russia, Arctic), on virus (rabies virus)

B1: antibody 2 (antibody, V domains shown)
VH: EVQLVESGAEVKKPGASVKVSCKASGYTFTSYDISWVRQAPGQGLEWMGWISTYKGNTNFAQKFQDRVTLTTDTSTTTAYMELRSLTSDDTAVYYCARAKSHPFYDFWSAYYVPGAFDIWGQGTVVTVSS
VL: not shown
Q: Which “neutralizing activity (RFFIT)” value [1] does the source give for B1 here?
A: Its value is 3.47 IU/mL and 17400 IU/mg.

Q: What about the “neutralizing activity (RFFIT), Titer” value [1] of the same binder?
A: Its value is 625.

Q: What about the “neutralizing activity (RFFIT)” value [2] of the same binder?
A: Its value is 1.79 IU/mL and 8930 IU/mg.

Q: And the “neutralizing activity (RFFIT), Titer” value [2]?
A: The value was 250.

Q: What about the “neutralizing activity (RFFIT)” value [3] of the same binder?
A: The value was 0.96 IU/mL and 4800 IU/mg.

Q: And the “neutralizing activity (RFFIT), Titer” value [3]?
A: The value was 36.

Q: And the “neutralizing activity (RFFIT)” value [4]?
A: The value was 10 IU/mL and 50000 IU/mg.

Q: What about the “neutralizing activity (RFFIT), Titer” value [4] of the same binder?
A: The value was 280.

Q: What about the “neutralizing activity (RFFIT)” value [5] of the same binder?
A: The value was 2.4 IU/mL and 11800 IU/mg.

Q: And the “neutralizing activity (RFFIT), Titer” value [5]?
A: The value was 1300.

Q: What about the “neutralizing activity (RFFIT)” value [6] of the same binder?
A: Its value is 7.6 IU/mL and 7590 IU/mg.

Q: What about the “neutralizing activity (RFFIT), Titer” value [6] of the same binder?
A: The value was 1100.

Q: What about the “neutralizing activity (RFFIT)” value [7] of the same binder?
A: The value was 2 IU/mL and 10000 IU/mg.

Q: And the “neutralizing activity (RFFIT), Titer” value [7]?
A: Its value is 270.

Q: And the “neutralizing activity (RFFIT)” value [8]?
A: The value was 11.3 IU/mL and 11300 IU/mg.

Q: And the “neutralizing activity (RFFIT), Titer” value [8]?
A: Its value is 1300.

Q: And the “neutralizing activity (RFFIT)” value [9]?
A: Its value is 1.56 IU/mL and 7780 IU/mg.

Q: And the “neutralizing activity (RFFIT), Titer” value [9]?
A: The value was 210.

Q: And the “neutralizing activity (RFFIT)” value [10]?
A: Its value is 5.33 IU/mL and 26700 IU/mg.

Q: What about the “neutralizing activity (RFFIT), Titer” value [10] of the same binder?
A: Its value is 200.

Q: And the “neutralizing activity (RFFIT)” value [11]?
A: The value was 3.11 IU/mL and 15600 IU/mg.

Q: What about the “neutralizing activity (RFFIT), Titer” value [11] of the same binder?
A: The value was 280.

Q: And the “neutralizing activity (RFFIT)” value [12]?
A: The value was 2.5 IU/mL and 12500 IU/mg.

Q: And the “neutralizing activity (RFFIT), Titer” value [12]?
A: Its value is 70.

Q: And the “neutralizing activity (RFFIT)” value [13]?
A: Its value is 8.8 IU/mL and 8800 IU/mg.

Q: And the “neutralizing activity (RFFIT), Titer” value [13]?
A: The value was 1100.

Q: And the “neutralizing activity (RFFIT)” value [14]?
A: Its value is 9.3 IU/mL and 9290 IU/mg.

Q: What about the “neutralizing activity (RFFIT), Titer” value [14] of the same binder?
A: The value was 1300.

Q: And the “neutralizing activity (RFFIT)” value [15]?
A: Its value is 2 IU/mL and 2000 IU/mg.

Q: What about the “neutralizing activity (RFFIT), Titer” value [15] of the same binder?
A: The value was 250.

Q: What about the “neutralizing activity (RFFIT)” value [16] of the same binder?
A: Its value is 2 IU/mL and 10000 IU/mg.

Q: What about the “neutralizing activity (RFFIT), Titer” value [16] of the same binder?
A: The value was 280.

Q: What about the “neutralizing activity (RFFIT)” value [17] of the same binder?
A: The value was 2.14 IU/mL and 10700 IU/mg.

Q: And the “neutralizing activity (RFFIT), Titer” value [17]?
A: Its value is 45.

Q: What about the “neutralizing activity (RFFIT)” value [18] of the same binder?
A: Its value is 0.4 IU/mL and 2000 IU/mg.

Q: And the “neutralizing activity (RFFIT), Titer” value [18]?
A: The value was 50.

Q: What about the “neutralizing activity (RFFIT)” value [19] of the same binder?
A: Its value is 0.4 IU/mL and 2000 IU/mg.

Q: And the “neutralizing activity (RFFIT), Titer” value [19]?
A: The value was 56.

Q: And the “neutralizing activity (RFFIT)” value [20]?
A: The value was 2.5 IU/mL and 2500 IU/mg.

Q: And the “neutralizing activity (RFFIT), Titer” value [20]?
A: The value was 250.

Q: What about the “neutralizing activity (RFFIT)” value [21] of the same binder?
A: Its value is 6.67 IU/mL and 33300 IU/mg.

Q: And the “neutralizing activity (RFFIT), Titer” value [21]?
A: Its value is 180.

Q: And the “neutralizing activity (RFFIT)” value [22]?
A: Its value is 1.85 IU/mL and 9260 IU/mg.

Q: What about the “neutralizing activity (RFFIT), Titer” value [22] of the same binder?
A: Its value is 250.

Q: And the “neutralizing activity (RFFIT)” value [23]?
A: Its value is 2.16 IU/mL and 2160 IU/mg.

Q: What about the “neutralizing activity (RFFIT), Titer” value [23] of the same binder?
A: The value was 270.

Q: And the “neutralizing activity (RFFIT)” value [24]?
A: Its value is 0.43 IU/mL and 2120 IU/mg.

Q: What about the “neutralizing activity (RFFIT), Titer” value [24] of the same binder?
A: The value was 170.

Q: And the “neutralizing activity (RFFIT)” value [25]?
A: Its value is 5.67 IU/mL and 28300 IU/mg.

Q: What about the “neutralizing activity (RFFIT), Titer” value [25] of the same binder?
A: The value was 170.

Q: What about the “neutralizing activity (RFFIT)” value [26] of the same binder?
A: The value was 3.12 IU/mL and 15600 IU/mg.

Q: What about the “neutralizing activity (RFFIT), Titer” value [26] of the same binder?
A: Its value is 390.

Q: What about the “neutralizing activity (RFFIT)” value [27] of the same binder?
A: Its value is 0.31 IU/mL and 1560 IU/mg.

Q: What about the “neutralizing activity (RFFIT), Titer” value [27] of the same binder?
A: Its value is 42.
